# Measurements from paper PMC3947653 (Peptides, 2013).
# What was measured:
# [1] = Aging of glucagon in glycine buffer at 37° C, analysed by LCMS; assay type: physicochemical
# [2] = system: animals; conditions: cited from earlier work
# [3] = cited from earlier work
substance,measurement,setting,value
glucagon,"width of main LCMS peak, glucagon aged at pH 10","[1]; 1 mg/ml in glycine buffer pH 10, 7 days at 37° C, reverse-phase LCMS",3 min
same,"deamidation events after aging, pH 10 vs pH 9","[1]; aged 7 days at 37° C, least-squares fitting of isotopic distribution of the m/z spectrum",more deamidation events than pH 9
same,"width of main LCMS peak, fresh glucagon","[1]; unaged glucagon, reverse-phase LCMS",1 min
same,bioactivity of fibrillated glucagon given to animals,[2],retains much of its bioactivity
same,aggregation at alkaline pH vs acid pH,[3],much less prone to aggregation than glucagon prepared at acid pH
